# From EP4768039A1, “PHARMACEUTICAL COMPOSITION AND USE THEREOF” (Shanghai Regenelead Therapies Co., Ltd., priority 2023, dated 2025)
# Target: Human VEGF-A protein (human) (UniProt P15692)
# Assay: cell-based or functional assay
# Conditions: not given
# UniProt P15692, sequence (P15692 other isoform, or with tags, fused parts or gaps limits assumed): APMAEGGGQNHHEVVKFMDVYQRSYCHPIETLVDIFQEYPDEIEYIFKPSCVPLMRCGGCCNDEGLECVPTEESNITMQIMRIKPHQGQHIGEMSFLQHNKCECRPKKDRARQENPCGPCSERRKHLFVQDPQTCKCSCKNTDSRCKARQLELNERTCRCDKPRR
row,Compound,VEGF-A IC50 (nM); VEGF-A-induced NFAT-RE Luc2P KDR reporter cells [nM]
1,PR1010(R1D2-R2D3-linker-R2D2-R2D3-Fc) (from UniProt P01857 104-330) (Fc fusion),2.71
2,PR1094(R1D2-R2D3-linker-R2D2(C162V)-R2D3-Fc) (from UniProt P01857 104-330) (Fc fusion),0.34
3,PR1109(R1D2-R2D3-linker-R2D2(V219I)-R2D3-Fc) (from UniProt P01857 104-330) (Fc fusion),0.18
4,PR1114(R1D2-R2D3-linker-R2D2-R2D3(N274I)-Fc) (from UniProt P01857 104-330) (Fc fusion),0.36
5,PR1115(R1D2-R2D3-linker-R2D2-R2D3(R275L)-Fc) (from UniProt P01857 104-330) (Fc fusion),0.28
6,PR1118(R1D2-R2D3-linker-R2D2-R2D3(D276Q)-Fc) (from UniProt P01857 104-330) (Fc fusion),0.22
7,PR1119(R1D2-R2D3-linker-R2D2-R2D3(L277R)-Fc) (from UniProt P01857 104-330) (Fc fusion),0.14
8,PR1120(R1D2-R2D3-linker-R2D2-R2D3(K278D)-Fc) (from UniProt P01857 104-330) (Fc fusion),0.38
9,PR1122(R1D2-R2D3-linker-R2D2-R2D3(K278E)-Fc) (from UniProt P01857 104-330) (Fc fusion),0.36
10,PR1123(R1D2-R2D3-linker-R2D2-R2D3(Q280E)-Fc) (from UniProt P01857 104-330) (Fc fusion),0.21
11,PR1124(R1D2-R2D3-linker-R2D2-R2D3(S283T)-Fc) (from UniProt P01857 104-330) (Fc fusion),0.29
12,PR1125(R1D2-R2D3-linker-R2D2-R2D3(E284H)-Fc) (from UniProt P01857 104-330) (Fc fusion),0.23
13,PR1126(R1D2-R2D3-linker-R2D2-R2D3(F288Y)-Fc) (from UniProt P01857 104-330) (Fc fusion),0.7
14,PR1129(R1D2-R2D3-linker-R2D2-R2D3(M314S)-Fc) (from UniProt P01857 104-330) (Fc fusion),0.67
15,PR1136(R1D2-R2D3-linker-R2D2-R2D3(L313R)-Fc) (from UniProt P01857 104-330) (Fc fusion),0.14
16,PR1141(R1D2-R2D3-linker-R2D2(C162V)-R2D3(N274F)-Fc) (from UniProt P01857 104-330) (Fc fusion),1.14

row,Compound,VEGF-A IC50 (nM); VEGF-A-induced NFAT-RE Luc2P KDR reporter cells [nM]
1,PR1142(R1D2-R2D3-linker-R2D2(C162V)-R2D3(N274I)-Fc) (from UniProt P01857 104-330) (Fc fusion),0.99
2,PR1143(R1D2-R2D3-linker-R2D2(C162V)-R2D3(R275L)-Fc) (from UniProt P01857 104-330) (Fc fusion),0.84
3,PR1146(R1D2-R2D3-linker-R2D2(C162V)-R2D3(L289Y)-Fc) (from UniProt P01857 104-330) (Fc fusion),0.98
4,PR1147(R1D2-R2D3-linker-R2D2(C162V)-R2D3(L313Y)-Fc) (from UniProt P01857 104-330) (Fc fusion),1.16
5,PR1148(R1D2-R2D3-linker-R2D2(C162V)-R2D3(L277R/L289Y)-Fc) (from UniProt P01857 104-330) (Fc fusion),1.49
6,PR1149(R1D2-R2D3-linker-R2D2(C162V/Y221S/R222K)-R2D3-Fc) (from UniProt P01857 104-330) (Fc fusion),0.82
7,PR1150(R1D2-R2D3-linker-R2D2(C162V)-R2D3(L313R)-Fc) (from UniProt P01857 104-330) (Fc fusion),0.81
8,PR1165(R1D2-R2D3-linker-R2D2(C162I)-R2D3-Fc) (from UniProt P01857 104-330) (Fc fusion),0.92
9,PR1166(R1D2-R2D3-linker-R2D2(C162L)-R2D3-Fc) (from UniProt P01857 104-330) (Fc fusion),1.12
10,PR1167(R1D2-R2D3-R2D2(C162V)-R2D3(N274F/S283T)-Fc) (Fc fusion),1.1
11,PR1168(R1D2-R2D3-R2D2(C162V/Y221S/R222K)-R2D3(N274F)-Fc) (Fc fusion),1.15
12,PR1169(R1D2-R2D3-R2D2(C162V/Y221S/R222K)-R2D3(S283T)-Fc) (Fc fusion),0.9
13,PR1170(R1D2-R2D3-R2D2(C162V/Y221S/R222K)-R2D3(N274F/S283T)-Fc) (Fc fusion),0.89
14,PR1171(R1D2-R2D3-linker-R2D2(C162V)-R2D3(N274F/S283T)-Fc) (from UniProt P01857 104-330) (Fc fusion),1.09
15,PR1172(R1D2-R2D3-linker-R2D2(C162V/Y221S/R222K)-R2D3(N274F)-Fc) (from UniProt P01857 104-330) (Fc fusion),0.92
16,PR1173(R1D2-R2D3-linker-R2D2(C162V/Y221S/R222K)-R2D3(S283T)-Fc) (from UniProt P01857 104-330) (Fc fusion),1.08

# System: not listed separately
# Assay: Temperature sensitivity of pH of different buffers
# Format: physicochemical
# Conditions: buffer working solutions, 2 °C to 30 °C; FIG. 17
# Procedure: • 1. About 3 mL of each of different buffers was added to a centrifuge tube. The pH value in the process of cooling from 30 °C to about 2 °C was measured with a pH meter in an ice-water bath and recorded, and then the pH change in the process of heating the solution from 2 °C to 30 °C was recorded. Table 30. Buffering ranges of different buffers
row,Compound,pH decrease as the temperature increased by 1 °C
1,"OCC(CO)(CO)NCCCNC(CO)(CO)CO [BTP, bis-tris propane]",about 0.024
2,"O=S(=O)(O)CCN1CCN(CCO)CC1 [HEPES, N-2-hydroxyethylpiperazine-N'-2-ethanesulfonic acid]",about 0.001
3,NC(CO)(CO)CO [Tris],about 0.024

# System: not given
# Assay: not given
# Conditions: pH range of the buffer system; cited from earlier work
row,Compound,Buffering range
1,"OCC(CO)(CO)NCCCNC(CO)(CO)CO [BTP, bis-tris propane]",6.3-9.5
2,"O=S(=O)(O)CCN1CCN(CCO)CC1 [HEPES, N-2-hydroxyethylpiperazine-N'-2-ethanesulfonic acid]",6.8-8.2
3,NC(CO)(CO)CO [Tris],7.0-9.2
